Assay results: paper PMC3724679, “Biochemical Characterization of a Polysialyltransferase from Mannheimia haemolytica A2 and Comparison to Other Bacterial Polysialyltransferases” (PLoS ONE, 2013)

System: CC(=O)N[C@H]1[C@H]([C@H](O)[C@H](O)CO)O[C@](OP(=O)(O)OC[C@H]2O[C@@H](n3ccc(N)nc3=O)[C@H](O)[C@@H]2O)(C(=O)O)C[C@@H]1O
Test: purified protein
Details: 0.5 mM GD3-FCHASE acceptor, 50 mM HEPES pH 7.5, 10 mM MgCl2, 30°C, CMP-Neu5Ac varied 0.25-20 mM

PSTMh (MalE-Δ20PSTMh) (Mannheimia haemolytica)
Km: 1100 ± 50 µM | Vmax: 1520 µmol/min/mg
